Data taken from the Immune Epitope Database (IEDB).
Values belong to the sequence of their own block, whether it stands above or below them.

Columns and labels:
[1] = biological target: HLA-B*18:01; experiment: IEDB peptide-MHC binding, purified MHC/competitive/radioactivity; filed as Kd, often an IC50 or EC50 that approximates it; ≥ and ≤ were set here for values at or beyond the usual limits of such assays
[2] = biological target: HLA-B*40:01; experiment: as above
[3] = biological target: HLA-B*40:02; experiment: as above
[4] = biological target: HLA-B*44:02; experiment: as above
[5] = biological target: HLA-B*44:03; experiment: as above
[6] = biological target: HLA-B*45:01; experiment: as above
[7] = biological target: HLA-A*68:02; experiment: as above
[8] = biological target: HLA-A*02:02; experiment: as above
[9] = biological target: HLA-A*02:03; experiment: as above
[10] = biological target: HLA-A*02:06; experiment: as above
[11] = biological target: HLA-A*02:01; experiment: as above
[12] = biological target: HLA-A*01:01; experiment: IEDB peptide-MHC binding, purified MHC/direct/fluorescence; filed as Kd, often an IC50 or EC50 that approximates it; ≥ and ≤ were set here for values at or beyond the usual limits of such assays; details: source organism: Shigella dysenteriae
[13] = biological target: HLA-A*02:01; experiment: as above; details: source organism: Shigella dysenteriae
[14] = biological target: HLA-A*03:01; experiment: as above; details: source organism: Shigella dysenteriae
[15] = biological target: HLA-A*11:01; experiment: as above; details: source organism: Shigella dysenteriae
[16] = biological target: HLA-A*26:01; experiment: as above; details: source organism: Shigella dysenteriae
[17] = biological target: HLA-A*31:01; experiment: as above; details: source organism: Shigella dysenteriae
[18] = biological target: HLA-A*69:01; experiment: as above; details: source organism: Shigella dysenteriae
[19] = biological target: HLA-B*07:02; experiment: as above; details: source organism: Shigella dysenteriae
[20] = biological target: HLA-B*08:01; experiment: as above; details: source organism: Shigella dysenteriae
[21] = biological target: HLA-B*27:05; experiment: as above; details: source organism: Shigella dysenteriae
[22] = biological target: HLA-B*40:01; experiment: as above; details: source organism: Escherichia coli
[23] = biological target: HLA-B*44:02; experiment: as above; details: source organism: Shigella dysenteriae
[24] = biological target: HLA-B*58:01; experiment: as above; details: source organism: Shigella dysenteriae
[25] = biological target: HLA-A*30:01; experiment: IEDB peptide-MHC binding, purified MHC/competitive/radioactivity; filed as Kd, often an IC50 or EC50 that approximates it; ≥ and ≤ were set here for values at or beyond the usual limits of such assays; details: source organism: Dengue virus 3 Martinique/1243/1999
[26] = source organism: SARS coronavirus Tor2
[27] = source organism: Lymphocytic choriomeningitis virus (strain WE)
[28] = source organism: Dengue virus 1 Singapore/S275/1990
[29] = source organism: Lymphocytic choriomeningitis virus (strain Armstrong)
[30] = source organism: Mammarenavirus guanaritoense
[31] = source organism: Trypanosoma cruzi
[32] = source organism: Hepacivirus hominis

Sequence: SDYDYYRYNL
Kd [1, 26]: ≥ 70500 nM
Kd [2, 26]: ≥ 69600 nM
Kd [3, 26]: ≥ 51600 nM
Kd [4, 26]: 12400 nM
Kd [5, 26]: 9730 nM
Kd [6, 26]: ≥ 25000 nM

Sequence: KEPVESCPL
Kd [1, 27]: ≥ 77500 nM
Kd [2, 27]: 1920 nM
Kd [3, 27]: 155 nM
Kd [4, 27]: ≥ 77900 nM
Kd [5, 27]: ≥ 78100 nM
Kd [6, 27]: ≥ 58400 nM

Sequence: ESLETLMLV
Kd ([7]; source organism: Dengue virus 4 Philippines/H241/1956): 162 nM

Sequence: REVKTIKVF
Kd [1, 26]: 4000 nM
Kd [2, 26]: 219 nM
Kd [3, 26]: 54.3 nM
Kd [4, 26]: 103 nM
Kd [5, 26]: 87.8 nM
Kd [6, 26]: 6750 nM

Sequence: LEDFKPRSQM
Kd [1, 26]: ≥ 37800 nM
Kd [2, 26]: 1520 nM
Kd [3, 26]: 21.7 nM
Kd [4, 26]: 622 nM
Kd [5, 26]: 1010 nM
Kd [6, 26]: 17700 nM

Sequence: YDYYRYNLPT
Kd [1, 26]: ≥ 70500 nM
Kd [2, 26]: ≥ 69600 nM
Kd [3, 26]: ≥ 36500 nM
Kd [4, 26]: ≥ 24800 nM
Kd [5, 26]: ≥ 20900 nM
Kd [6, 26]: 15100 nM

Sequence: SSVLLWMASV
Kd [7, 28]: 45.2 nM

Kd ([8]; source organism: Homo sapiens): 12400 nM
Kd ([9]; source organism: Homo sapiens): ≥ 32800 nM
Kd ([10]; source organism: Homo sapiens): ≥ 78700 nM
Kd ([7]; source organism: Homo sapiens): ≥ 107000 nM
Sequence: DLENRCQSL

Sequence: REFVATTRTL
Kd [1, 29]: 14100 nM
Kd [2, 29]: 8640 nM
Kd [3, 29]: 69.9 nM
Kd [4, 29]: 3180 nM
Kd [5, 29]: 7560 nM
Kd [6, 29]: ≥ 30500 nM

Sequence: EEAALCTFLL
Kd [1, 26]: 163 nM
Kd [2, 26]: 43.7 nM
Kd [3, 26]: 17.7 nM
Kd [4, 26]: 21.6 nM
Kd [5, 26]: 13.1 nM
Kd [6, 26]: 89 nM

Sequence: PDFELLLSL
Kd [1, 30]: 701 nM
Kd [2, 30]: 14600 nM
Kd [3, 30]: 2.18 nM
Kd [4, 30]: 7830 nM
Kd [5, 30]: ≥ 35800 nM
Kd [6, 30]: ≥ 38100 nM

Sequence: FANHAFTLV
Kd [11, 31]: 68.7 nM
Kd [8, 31]: 32.7 nM
Kd [9, 31]: 0.226 nM
Kd [10, 31]: 1.2 nM
Kd [7, 31]: 23.2 nM

Sequence: MTGPLVAGGL
Kd ([7]; source organism: Dengue virus 2 Jamaica/1409/1983): 21.6 nM

Sequence: AEMRETHWL
Kd [12]: ≥ 20000 nM
Kd [13]: ≥ 20000 nM
Kd [14]: ≥ 20000 nM
Kd [15]: ≥ 20000 nM
Kd [16]: ≥ 20000 nM
Kd [17]: ≥ 20000 nM
Kd [18]: ≥ 20000 nM
Kd [19]: ≥ 20000 nM
Kd [20]: ≥ 20000 nM
Kd [21]: ≥ 20000 nM
Kd [22]: 6.21 nM
Kd [23]: 2000 nM
Kd [24]: ≥ 20000 nM

Sequence: MVHQIFGSA
Kd [25]: 29.6 nM
Kd ([7]; source organism: Dengue virus 3 Martinique/1243/1999): 16.7 nM

Kd ([10]; source organism: Homo sapiens): ≥ 50300 nM
Kd ([7]; source organism: Homo sapiens): 10300 nM
Sequence: KLKNKHEAMI

Sequence: LLGLWGLAAL
Kd [11, 31]: 50.7 nM
Kd [8, 31]: 4 nM
Kd [9, 31]: 9.38 nM
Kd [10, 31]: 144 nM
Kd [7, 31]: 5820 nM

Sequence: MAVGIVSILL
Kd [7, 28]: 5.58 nM

Sequence: KLRGMGFNAV
Kd [11, 32]: 454 nM
Kd [8, 32]: 161 nM
Kd [9, 32]: 2.05 nM
Kd [10, 32]: 496 nM
Kd [7, 32]: ≥ 40600 nM
